Measurements reported in US4284553A, “Reversible method for covalent immobilization of biochemicals” (North Carolina State University at Raleigh, priority 1980, dated 1981).

Key:
[1] = system: CCOC(=O)[C@H](Cc1ccc(O)cc1)NC(=O)c1ccccc1; experiment: purified protein, by the assay type; settings: other: substrate BzTyrOEt
[2] = target: T1, α-Chymotrypsin (EC 3.4.21.1) from bovine pancreas, immobilized on thioester-derivatized glass beads (20.2 mg/g) (Bos taurus, UniProt P00766); experiment: Hydrolysis of BzTyrOEt by α-chymotrypsin immobilized on thioester-glass beads (20.2 mg/g); assay type: biochemical; parameters: unit not given here; settings: substrate BzTyrOEt; immobilized (20.2 mg/g)
T1 construct: purchased Miles Laboratories or Sigma Chemical Co; host or cells: bovine pancreas
Protocol: (§1) α-Chymotrypsin (EC 3.4.21.1) from bovine pancreas was obtained as a lyophilized powder from Miles Laboratories or Sigma Chemical Co. and used without further purification. All chemicals used were reagent grade or better.
(§2) Succinamidopropyl-derivatized glass was converted to the acyl chloride derivative by treatment with anhydrous thionyl chloride. Care was taken to prevent the introduction of water in each of these reaction steps. The reacion mixture was held at 70° C. for 1 hour. The solution was then cooled to 25° C., and excess thionyl chloride was drained from the beads, which were then rinsed thoroughly with dry dichloromethane. The beads were next covered with anhydrous 3-mercaptopropionic acid and again held at 70° C. for 1 hour. Following reaction, the excess acid was drained, and the derivatized beads were again washed with dichloromethane. […]
(§3) Hydrolysis of benzoly-L-tyrosine ethyl ester (BzTyrOEt) by α-chymotrypsin was assayed according to the method of Hummel, B. C. […] Reaction was initiated by addition of soluble enzyme to the reaction mixture, and reaction progress was monitored spectrophotometrically at 256 nm. […] Initial slopes were read directly from the recorder chart and kinetic constants were evaluated using a computer program to fit data directly to velocity versus substrate concentration curves.

[3] = target: T2, α-Chymotrypsin (EC 3.4.21.1) from bovine pancreas, immobilized on thioester-derivatized glass beads (9.5 mg/g) (Bos taurus, UniProt P00766); experiment: Hydrolysis of BzTyrOEt by α-chymotrypsin immobilized on thioester-glass beads (9.5 mg/g, after brief hydroxylamine treatment); assay type: biochemical; parameters: unit not given here; settings: substrate BzTyrOEt; immobilized (9.5 mg/g)
T2 construct: purchased Miles Laboratories or Sigma Chemical Co; host or cells: bovine pancreas
Protocol: as §1, §2, §3

Work on “α-Chymotrypsin (EC 3.4.21.1) from bovine pancreas, native soluble enzyme before immobilization (Bos taurus)” yielded a Km ([1]; soluble enzyme before immobilization) of 2.74 mM.
With `CCOC(=O)[C@H](Cc1ccc(O)cc1)NC(=O)c1ccccc1` [BzTyrOEt, benzoly-L-tyrosine ethyl ester] the “kcat /Km (app)” value [2] was 0.9 and the “kcat /Km (app)” value [3] was 1.0.
Work on “α-Chymotrypsin (EC 3.4.21.1) from bovine pancreas, soluble enzyme released by hydroxylamine (thioacylated, about three chains per molecule) (Bos taurus)” yielded a Km ([1]; soluble enzyme released by hydroxylamine, pH 7.0) of 3.35 mM.
